Consider one substance from patent US20210371467A1.

Assay [1] has as its target Npu^C-CFN (Nostoc puminciforme PCC73102 (Npu)). In words: cell-based or functional assay.
Assay [2] concerns the target Ssp^C A136S-CFN (Synechocystis Species PCC6803 (Ssp)). The assay is described as follows: cell-based or functional assay.

Npu^C-CFN (Nostoc puminciforme PCC73102 (Npu)), sequence (chain, as listed by the source): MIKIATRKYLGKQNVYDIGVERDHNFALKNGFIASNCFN

As for “Npu^N (AEY-Npu^N, product of plasmid 2 after cleavage of the His6-SUMO tag)”, the protein trans-splicing half-life (t1/2) at 30° C., in vitro PTS assay in assay [1] was determined as 50 s. This substance also returned a rate of branch resolution in assay [2] of 2 fold.
